Measurements reported in article PMC11268888, “Glycan-shielded homodimer structure and dynamical features of the canine distemper virus hemagglutinin relevant for viral entry and efficient vaccination” (eLife, 2024).

Assays:
[1] = target: T1, ectodomain of human Nectin-4 (residues 1-333) (human, UniProt Q96NY8 32-333); test: SPR; […]; HBS-EP (10 mM HEPES pH 7.4, 150 mM NaCl, 3 mM EDTA, 0.005% Surfactant P20); […]; details: both partners purified
T1 construct: also called hNectin-4; PVRL4
T1 sequence (looked up): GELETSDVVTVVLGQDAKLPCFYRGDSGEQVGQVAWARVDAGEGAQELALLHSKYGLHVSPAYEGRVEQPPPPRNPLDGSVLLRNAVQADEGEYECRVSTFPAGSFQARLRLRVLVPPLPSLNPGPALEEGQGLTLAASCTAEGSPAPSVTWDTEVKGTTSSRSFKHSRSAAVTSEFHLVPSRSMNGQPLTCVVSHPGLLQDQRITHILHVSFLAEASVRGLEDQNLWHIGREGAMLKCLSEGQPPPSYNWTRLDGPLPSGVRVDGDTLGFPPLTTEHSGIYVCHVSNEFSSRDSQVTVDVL

[2] = target: T2, ectodomain of dog Nectin-4 (residues 1-332) (dog); test: as above; details: both partners purified
T2 construct: also called dNectin-4; PVRL4

B1: MeV-H (measles virus hemagglutinin), wild-type strain (domain or fragment)
chain: DYDQYCADVAAEELMNALVNSTLLEARATNQFLAVSKGNCSGPTTIRGQFSNMSLSLLDLYLSRGYNVSSIVTMTSQGMYGGTYLVGKPNLSSKGSELSQLSMHRVFEVGVIRNPGLGAPVFHMTNYFEQPVSNDFSNCMVALGELKFAALCHREDSITIPYQGSGKGVSFQLVKLGVWKSPTDMRSWVPLSTDDPVIDRLYLSSHRGVIADNQAKWAVPTTRTDDKLRMETCFQQACKGKNQALCENPEWAPLKDNRIPSYGVLSVNLSLTVELKIKIASGFGPLITHGSGMDLYKTNHNNVYWLTIPPMKNLALGVINTLEWIPRFKVSPNLFTVPIKEAGEDCHAPTYLPAEVDGDVKLSSNLVILPGQDLQYVLATYDTSRVEHAVVYYVYSPSRSFSYFYPFRLPIKGVPIELQVECFTWDKKLWCRHFCVLADSESGGHITHSGMVGMGVSCTVTREDGTNRR
Ka [1]: 1.48e+06 M⁻¹
Kd [1]: 674 nM
Ka [2]: 739000 M⁻¹
Kd [2]: 1350 nM
